This note sets out measurements from PMC4426631, “Insect antimicrobial peptides show potentiating functional interactions against Gram-negative bacteria” (Proceedings of the Royal Society B: Biological Sciences, 2015).

To fix the notation:
B1: Metchnikowin-1 (P4), Drosophila melanogaster, Cf-[residues removed]-NH2 (peptide)
peptide: Cf-HRHQGPIFDTRPSPFNPNQPRPGPIY-NH2
notes: metchnikowin 1 of Drosophila melanogaster; source: synthetic peptide (PANATecs, Tübingen), purified to >95%
B2: Metalnikowin IIA (P2), Palomena prasina, Cf-VDKPDYRPRPWPRPN-NH2 (peptide)
peptide: Cf-VDKPDYRPRPWPRPN-NH2
notes: metalnikowin IIA of Palomena prasina; source: synthetic peptide (PANATecs, Tübingen), purified to >95%
B3: Metalnikowin I (P1), Palomena prasina, Cf-VDKPDYRPRPRPPNM-NH2 (peptide)
peptide: Cf-VDKPDYRPRPRPPNM-NH2
notes: metalnikowin I of Palomena prasina; source: synthetic peptide (PANATecs, Tübingen), purified to >95%
B4: Metchnikowin-2 (P5), Drosophila melanogaster, Cf-[residues removed]-NH2 (peptide)
peptide: Cf-HRRQGPIFDTRPSPFNPNQPRPGPIY-NH2
notes: metchnikowin 2 of Drosophila melanogaster; source: synthetic peptide (PANATecs, Tübingen), purified to >95%
B5: Abaecin (P3), Bombus pascuorum, Cf-[residues removed]-NH2 (peptide)
peptide: Cf-FVPYNPPRPGQSKPFPSFPGHGPFNPKIQWPYPLPNPGH-NH2
notes: abaecin of Bombus pascuorum, 39 residues; also called B. pascuorum abaecin; source: synthetic peptide (PANATecs, Tübingen), purified to >95%

As a reminder, the Kd is a measure of binding affinity in units of concentration.

Cf = 5(6)-carboxyfluorescein

In the test the target is T1, DnaK–BHQ10 (E. coli chaperone DnaK labelled with Black Hole Quencher 10) (E. coli, UniProt P0A6Y8 1-638, BHQ10 (from BHQ10-NHS-ester), labelling ratio 1 : 9 DnaK : BHQ10).
T1 construct: chaperone DnaK of Escherichia coli; also called bacterial DnaK; quencher-labelled bacterial DnaK probe; source: produced by Michael Zahn [50]; dialysed and labelled with BHQ10-NHS-ester
T1 sequence (P0A6Y8 whole entry): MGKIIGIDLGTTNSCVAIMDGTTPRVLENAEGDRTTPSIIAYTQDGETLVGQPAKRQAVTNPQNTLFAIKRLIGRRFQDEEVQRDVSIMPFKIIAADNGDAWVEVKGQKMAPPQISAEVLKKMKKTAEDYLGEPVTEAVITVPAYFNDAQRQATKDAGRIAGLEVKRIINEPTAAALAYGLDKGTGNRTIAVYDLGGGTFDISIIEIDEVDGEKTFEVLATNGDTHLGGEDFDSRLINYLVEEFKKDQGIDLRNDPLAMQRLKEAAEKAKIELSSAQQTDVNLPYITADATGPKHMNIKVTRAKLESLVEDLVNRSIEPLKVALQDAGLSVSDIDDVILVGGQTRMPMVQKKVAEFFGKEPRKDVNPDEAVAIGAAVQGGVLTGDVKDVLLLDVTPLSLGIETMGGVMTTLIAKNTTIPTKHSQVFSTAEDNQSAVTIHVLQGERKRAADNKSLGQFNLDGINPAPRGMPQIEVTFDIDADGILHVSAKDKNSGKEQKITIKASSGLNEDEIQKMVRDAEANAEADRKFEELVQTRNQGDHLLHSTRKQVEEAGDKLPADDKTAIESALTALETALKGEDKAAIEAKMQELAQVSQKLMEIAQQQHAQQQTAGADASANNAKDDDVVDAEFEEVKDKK
In words: FRET or BRET; FRET-based quenching assay in solution: fluorescein-modified peptide (50 μl, 1.3 nmol/l) mixed with a serial dilution of DnaK–BHQ10 (50 μl, 0.8–13 000 nmol/l, 1 : 4 series) in modifying buffer (20 mmol/l Na2HPO4, 20 mmol/l KH2PO4, 5 mmol/l MgCl2, 150 mmol/l KCl, pH 7.4), black 384-well plate, 2 h; Kd by non-linear regression (dose-response logistical function, SlideWrite) of quenching against DnaK …. To be noted: both partners purified.
As for B1, the equilibrium dissociation constant (Kd) was more than 5 µM.

As to B2, the Kd was more than 5 µM. Turning to B3, the dissociation constant Kd was more than 5 µM. For B4, the Kd was more than 5 µM. For B5 the value was 0.19 ± 0.03 µM.
